Results from the domain aggregation screens of Martell et al. (2025).

Assay: soluble fraction after stress (log2 fold change); higher = more stays soluble; pooled small domains, quantitative proteomics
Conditions: stress: 75 degC
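Also: 20 min heating vs room temperature control held 20 min.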

Row | Sequence | soluble fraction (log2)
1 | HMERPEVVAYRLAYASAESLRPALGLVASPSDLEIDERTNTLIVRAVPSVQERVAELVASLDI | -0.492
2 | HMQPFTELTPREREILGHLAEGQSNKVIARHLDISDGTVKLHVKAILRKLGVHSRVEAAVMAVEHGIR | -2.11
3 | HMQSLAAKINGYIVAQRTSIAAIAKEIGYSRVTVSRYLAGKYDSDPTGIEAKLAAFLAGQTGEE | -3.99
4 | HMSRDYKTELQERLQVNGPVKIEYQVIAEDESKPSFKVQLLVNDKKISEGQGRNKKAAEQQAAQAAL | 0.0103
5 | HMNRNEFMERLEYLLSDIPQEEKADAIAYYRDYLEEAGDDAGKAIQDFGSPERIAAMIRSELAG | -0.0288
6 | HMNISRESLIGQILATLNKNPEEGFNYKQIAKRLNITDSPGRQMISDLLRELSKHGSLQEISHGKYKIKV | -0.237
7 | HMKITIDSVERDETFRLIWGTGWKPKNKIQELAAIQAKKNGLGRMNEVAGLAAWRGIWQQVAEQVAQEVL | -2.03
8 | HMKETERKILQAVLGLPLKYRDVIHLFYYEEMSVKEIAEVLHRQESTVTSQLTRARGILKKNL | 0.264
9 | HMHPEPDPVLFIDGKEYPYDKLSELDETRVQSMTILPKKSAVKKYGDKYANRSIMEITLKKEN | 0.119
10 | HMILQTLSERVTETLRDWILHGHFKPGDKIEEVPIAERMGVSRTPVRAAFATLTNEGLIDHQPNRGYQVRV | -0.496
11 | HMRPRQDRSEETRDRILDAVVELIAERGLAGVSHRAVADRAGVSLSATSYYFGSKAELERAALEEHYRR | -0.881
12 | HMGNLASGAYEQIKRRILSLEYLPGSILQERGLAEELGISRTPVREAIHRLSQEGWLKINSRKNIRVR | -2.32
13 | HMVNGEFIDRIKVILQENNATRKKDRLTKTRMYQLLQEEGYEGSYSAFTYQVRIIEEELGINNK | -2.31
14 | HMRLHSSGEDYLKAIFILEAQHSSVRSVEVAEYMNVSKASVSHAVALLKKNGFLKMNQDYDLTER | -0.163
15 | HMSIESMVGRFGVVTKDVVANEMAGKVKVGREEFRATADIAVSSGTKVKVTHAEGITLTVVPE | 0.611
16 | HMPVAPTYALTVKTDPPSANVRLLNSPTPYQPGVRLPSGNYDIEVTQSGYATRKESVRIADRDVALNIAL | 0.265
17 | HMNYIGADAAKNMAAADAQVDTANASFSGANLGEKNGLSYYQVDFTANGREYHYAIDAMTGTVIESSSAAS | 0.122
18 | HMNAIYKFVLGMIGKRSGVVTTLPSKKQVEFQANMLAEKFMQNGIDPNALKSPEQVKNVLANIDQ | -1.13
19 | HMTQSGLTQWEFNMLRQALIEMLGEKPGSVFELARLLPLEQEKNVQALRFLLDHDDQFHLKDEYISFVKRT | -2.34
20 | HMNGTEAIRRYIDQFASKHATTPRMLKLNERKQLIQELKNNGLLEIKKAVETVAQHLGISRASAYLYVKE | -1.52
21 | HMDIGTYTVTASALNIRQYPTASSAKTGSYPNGSIVTIYEYLTDGSWGRTDDGWISMNYVSRRY | -1.93
22 | HMKPSKTDEAEYWLMERLEEGPQPAGDLIRIGEEFGYTPKILRDAGERFNMERYKDGLDHWMWKLPN | -0.154
23 | HMTRRVIRAPAAGIMRSNVKLGDLVKEGDVIAWIGEHEIKAPLTGMVRGLLNDGLAVVGGFKIGDI | 0.286
24 | HMAPEVTVHDGSIVVRGHVGGVTVYDESGRQIASVQSRGAVAIPVPAGHTYLYIVKPEGKPAIKVRAAH | -0.265
25 | HMLMDVRVPDIIGVEINQAKEILTASSLLIGKITYVSLPEIEKDLVIETSVLAGRRVSAGTVIDITVNKE | -2.09
26 | HMVKPKIILADIGMITETDVTLAKASQAVLIAFNVKPSKEAKKLAEDENIKISTYNIIYEVLDFVKKSMSG | 0.304

Row | Sequence | soluble fraction (log2)
27 | HMKNEVENLSYMINRIIEYRDLNNLSNKNLANKIGISEALLSYILNGRRKLSKEIQRKIALFLLND | -1.99
28 | HMLNLNEAEKSIYVLIKKNESNNLNKVKEDSNLSNKAWDKGIKNLVKNNLVKVVKSNEGLFIQLV | -0.636
29 | HMNMDLGHSISKLRTDANLTQEKFAQILNVSRQTVQKWEYGEALPDIHNIIKIAKFFNISLDALVLRS | -3.02
30 | HMEDETAKVLRLLAENNGYLPYNDKSDPTDIYAFFGMSKKAFKMTTGNLYKQKKIQFTQTGIQLIE | -1.77
31 | HMGAAVEVISLRYRSAAELLPIVRSLLSTEGKISADERTNSLIIVDSDEAVARVIHSLATLDT | -1.3
32 | HMVDTEVFSRLLRKVLAGDVTSAIRILEELIVGGRELSQFVGDFTWYMRNLLLVKTSDNPEEA | -0.463
33 | HMKIPIIYQPLKNAKRIKIYIPYELKELRTIFKKINTTFWHPNQKLWSIIYTQENVALIKNLFGKNYKIVN | -0.499
34 | HMIPKDKQAWIALTYIYGVGRTTSMEILKKAQVGEEIRMKDLTEEEVTRIRNIIDKEYEVEGDLRRN | -0.252
35 | HMRPSGEAVNAAYRLLKGANPSGNEGDLIQRAQEVAAILPKLNRSSAAAFAKDAKANGLTQAETIALWKGS | 0.135
36 | HMLVSPLDEIPGIGRNRKKTLLNHFGSAKTIEGASLEDLKKVDGISELIAKKIYNYFHLNKNF | -0.85
37 | HMIDFDHADIERLWNSIIHYVPERQKLDFAIDFIKSLEDIGVEHDVLRGSAELDPKLEEAVNTVFE | -0.725
38 | HMHVLNEEYYNRIKAIQFTMNHDDGNSLNDIEKSDIILLGVSRTSKTPTSIYLANRGLRTSNIPLINEK | -0.655
39 | HMYTLGEESDGTVRLLELYDIIKNKNEKIFVVDELDRSLHPNLTFNFVKKYLSIENKSQLIVSTH | 0.0677
40 | HMTEDADIERRLTGILASAGWYRSLAVEVKEGIVYLDGATASGNHRDWAGSLAAKTEGVVAVVNRIEVQP | -1.86
41 | HMATEPLQPRVEVLGSTLATTNGARIVGVYDMSGREVSATQLSKGVYIVKVTNGSVTATQKVFI | -0.477
42 | HMEVGDTYLGKVTRVSSFGAFIEVLPGKEGLMRQNDAGEGGMPEVGDEVMVRVMEVDHLGRINLSGKLDD | -0.102
43 | HMQSNIHELQKKLNEALQALSEDHRAVVTMFDIQGMPHAEISKILGVSEGTVRSRLYYAHQQLQGHL | -1.11
44 | HMYPDNSGDIQQLAQNIFRQENVSVDRDGLALISSRLGSDHAATRSEIEKLALLAGPGGTLTFETISEVLG | -0.145
45 | HMVLNVMIEEEVHREIIAAISKLPKERRRVVELSMAGFSQEEIAEKMAISVNTVKTIKLRAYRVLRERLKG | -3.78
46 | HMLPLGSNEYETAVIKHLASGVQDADEIQRLTGIDQTSLNTALTMLELAGTIRPLGNNHWTL | 0.459
47 | HMQDRDKNVPAGKELLDNEIARLNMSLKQVEQFALPRYNLKTLEDLYSGIGSGDIRLNHLINFLQSKLI | 0.338
48 | HMAQQEMEIIPLRHRQVEQVMPTLRPLLEPGAALSGMNNQLILRASRKNREEIKQALAVIDT | 0.0427
49 | HMDGIDALEPLMRRVFEALPQRRSMTIERAAVAAGLDEESVKIALVRLQLEGYVANDERGWHRSKSPH | -2.48
50 | HMSVTYRLLITSSPGQAEVFLDGKRVGITPFSARLAAGWYQVRVSKEGYNLWEQHVQLREDQRLTATLT | -3.17
51 | HMFEDYLRMKGLSIVSFSKQTGIPISTLRNLNKIRYDKWKIRYLEELSNVLNKTIQEIIEELKNMG | -3.5
52 | HMEAYMVPNVKNKTLNEAQQALSNQKLKGLVIDSSYVKGVPDGMVLDQNPAGGARVKEGRTIYLTVTTS | 0.237

Row | Sequence | soluble fraction (log2)
53 | HMALQDKYKELTDAATAAGVTDLQVREQDNVLYIDGTAPSGAVKDQLWAIYDKIDPNFVSGDLVLNVNVD | 0.0863
54 | HMSDLPLLEHARQNLSDDEFRILELTTIYGYRRVEVAKMLGEPISTINWKYNKLIKKVKTFYGEVYN | -0.998
55 | HMWKSEAGKKIIESLAQKYNKSNAQIILRWHIQMGYIVIPGARSENHIKENINIFDFKLTNEEINNILKLN | -0.242
56 | HMSSPTAKATGSSVNIRKSASTGAAVLKRVEKGTVLEAVSISDGWVKVKYSGVTGYVSADYVKVSGL | -2.19
57 | HMSDIQKGTQINLVNEPLYVSSKTSIVSTYKTGTYYTWGFEANNRIAITNKLENIGVKGQVTGWINKP | -1.73
58 | HMNDAEEKAEAIEGVKNFMANMEKTDIDFKSKESVLLEQVEEIRKNYPVAQWPVIVKQLYNNIGRL | -0.0997
59 | HMNQADNFNSLTKREKDVLLLVTQGESNKSIADKLVLSEVTVKSHLNSIFKKLNVTNRTQAVLVAMQMNLV | -1.6
60 | HMQNFLSITSKEKIDIGNFQLISFKFENNLYDYVISGNKSELLIFQEKTIENNNENIEKITSNF | -2.54
61 | HMSELLIVGSEQDNTRLDRFLADQYEEYTRSFLQKLIDQGNVSINGISVKKSGIKLKENDEIAVTLPEPQ | 0.646
62 | HMQAVDPLELRAGDFVVHEQHGIGRYVEMVQRTIGGITREYLVIEYAPAKRGQPNDRVFVPTDTLEQVS | -0.654
63 | HMGIEIKLLMSFMTDSGRKVSLFVTDPREDVTETEIKQVMDLIIEKNIFAPNGEDIVSAKEAKIVQT | -1.35
64 | HMTAIKAGDLVKITGTKYYGGQTIPGWVKNQNWYVQEVSGDRAVINKNESGTNAIMSPIRVSDLTPVS | 0.036
65 | HMTEKIVFNIDGQTGRIDKILADFMTGTSRSQIQAWVKDGNLMVNDKAVKSNYKVQDGDLLELTIPEPEQ | -0.284
66 | HMKLVESALSILEEAVDRDFHGNLGDAARYFDIPYQTIYSWLKSRKRVPSLRALEPVLEKLGVSFTT | -2.01
67 | HMLDLNEVEFYAIENQLKENLKIDSKRFYELVPLIKGYQEDDIIQVLRWLIDNNRIIRHKDESLTWHS | -1.68
68 | HMETPLSAADFKIVFGEEYEIGTDANGLPKMGSRINRQLQNRFLTWASVNKRKATMSAYQDWVASDPAAQ | -0.323
69 | HMRIASANAIYDELLNKRDDAKLAELKQEDINLYALYILQNGSADERAALENTQGIDVVLKEIINLQNG | -0.305
70 | HMLTALTDREEEILVLLAHNLSNKEIAKRLNLSVNTVRNHTSHIYEKLNVTSRRKAITLAQSLHLLPP | -1.48
71 | HMEWVVVPDVRRQLLPEAQRRVNKARLRLEVAGGWPAEPLLAMVVDQKPGPETRVPLNSIVVVVVRNLP | -0.981
72 | HMLDTELEANLRSQRDQKLVEELDPIVTNPLRWAELTSDKQTEWTQYRTDLLNVPQQSGFPTNVTWPEKP | 0.216
73 | HMNVDSLIGKKARVLEDIDNLNAKGQVSIDGMEWTARSEDGSEIKKDALVEVVAIEGVKAIVKQ | 0.242
74 | HMKAQTVPQFVGMTMTEAEEKASELGITLIEGAVVDSVEPKDTILTQDVDEGTEITGKMEIMVTISS | 0.324
75 | HMSVERIEPPLPLIDTLLALRDALERPLSREENAFLSRRFAGGATRAQIDALAAQFRGAAAAESKV | 0.0516
76 | HMSSFSESFHKALNNLDDKHKSVFSLRHFEGFSMKEIAETLNINEGTVKSRLFYATKTLAGALKEF | -3.45
77 | HMQEDKSKYLFQRGTAITVLRPAGIVRIGKERVDAVSNGSYIDRGVAVRVIEVEGTRVVVEPVPE | 0.0187
